Reference: US20250312499A1 (RADIONETICS ONCOLOGY, published 2025)
Numbered stars: 1 amine (or outer) side, 2 acyl side, 3 side chain; on linkers, the order of the positions; unused ones are H or OH. Square brackets hold non-standard residues; d marks the D form. * marks the point of attachment. X2 = 4‑amino‑1‑((3-fluoro-4-methylbenzyl)glycyl)piperidine‑4‑carboxylic acid, Cc1ccc(CN(CC(=O)N2CCC(N[*:1])(C(=O)[*:2])CC2)[*:3])cc1F; X10 = 3‑(2-(2-(3-(4-iodophenyl)propanamido)ethoxy)ethoxy)propanoyl, O=C(CCc1ccc(I)cc1)NCCOCCOCCC(=O)*; DOTA = O=C(O)CN1CCN(CC(=O)O)CCN(CC(=O)*)CCN(CC(=O)O)CC1; Api(1-amidino) = N=C(N)N1CCC(N)(C(=O)O)CC1; 4Pal = N[C@@H](Cc1ccncc1)C(=O)O; d4Pal = N[C@H](Cc1ccncc1)C(=O)O; Ahx = NCCCCCC(=O)O; azaGly = NNC(=O)O

B1: In Complex of Compound 2 (peptide)
peptide: {DOTA-Ahx}-F[azaGly]L[X2]W-NH2
modifications: also: nonradioactive indium(III) chelated by DOTA
notes: also called 2-In
B2: Ga Complex of Compound 1 (peptide)
peptide: {DOTA-Ahx}-[dY][dW]NTF[azaGly]L[X2]W-NH2
modifications: also: nonradioactive gallium(III) chelated by DOTA
notes: also called 1-Ga
B3: In Complex of Compound 1 (peptide)
peptide: {DOTA-Ahx}-[dY][dW]NTF[azaGly]L[X2]W-NH2
modifications: also: nonradioactive indium(III) chelated by DOTA
notes: also called 1-In
B4: Lu Complex of Compound 1 (peptide)
peptide: {DOTA-Ahx}-[dY][dW]NTF[azaGly]L[X2]W-NH2
modifications: also: lutetium(III) chelated by DOTA
notes: also called 1-Lu
B5: Indium complex of Compound 193 (peptide)
peptide: {DOTA}-G[dY][d4Pal]NTF[azaGly]L[X2]Y-NH2
modifications: also: nonradioactive indium(III) chelated by DOTA
notes: also called 193-In
B6: In Complex of Compound 105 (peptide)
peptide: {DOTA-Ahx}-[dY][dW]NTF[azaGly]L[X2][4Pal]-NH2
modifications: also: nonradioactive indium(III) chelated by DOTA
notes: also called 105-In
B7: In Complex of Compound 196 (peptide)
peptide: X10-[dY]K(DOTA)NTF[azaGly]L[Api(1-amidino)]W-NH2
modifications: also: indium(III) chelated by DOTA on Lys
notes: also called 196-In
B8: In Complex of Compound 6 (peptide)
peptide: {DOTA-Ahx}-[dY][dW]NTF[azaGly]L[Api(1-amidino)]W-NH2
modifications: also: nonradioactive indium(III) chelated by DOTA
notes: also called 6-In

biological target: T1, human kisspeptin receptor (KISS1R) (human, UniProt Q969F8 1-398); experiment: radioligand competition, hKISS1R membranes; legend: A is <10 nM
T1 construct: whole, on cells; Assayed as crude membrane fractions of tetracycline-induced Flp-In T-Rex 293 cells expressing the receptor; also called GPR54; hKiSSR
Protocol: The cells are grown to 85-100% confluence on standard tissue culture dishes in Dulbecco's Modified Eagles Medium (DMEM) (Corning) supplemented with 10% FBS (Gemini), 1% penicillin-streptomycin-glutamine (Gibco), 500 μg/mL hygromycin, and 15 μg/mL blastacidin. 48 hrs prior to preparing membranes 10 μg/ml of tetracycline is added to the culture media to induce receptor expression. To prepare membranes, cells are scraped and collected in 1× Dulbecco's phosphate buffered saline (Corning) and then pelleted at 1000 RPMs. The cell pellet is reconstituted in membrane preparation buffer (20 mM HEPES, 6 mM MgCl₂ and 1 mM EGTA, protease inhibitor tablets (Pierce), pH 7.4) and placed in a cell disruption vessel (Parr Instrument company) at 1000 PSI for 30 min on ice. The pressurized contents are then released and spun down at 1000 RPMs and the supernatant is collected and further centrifuged at 15,000 RPMs to pellet the membranes. The membrane pellet is resuspended in membrane preparation buffer, snap frozen and stored at −80° C. for later use.
Assay contents are then filtered through unifilter CF/C: microplates (PerkinElmer) pre-soaked with 0.5% BSA and washed with 9×400 μL of cold wash buffer (10 mM HEPES, 500 mM NaCl, 0.1% Tween-20, pH7.4). Assay plates are read using a Microbeta² (PerkinElmer) and Ki values for compounds are determined using a GraphPad Prism 9.3 non-linear regression analysis.

T1 sequence (Q969F8 whole entry): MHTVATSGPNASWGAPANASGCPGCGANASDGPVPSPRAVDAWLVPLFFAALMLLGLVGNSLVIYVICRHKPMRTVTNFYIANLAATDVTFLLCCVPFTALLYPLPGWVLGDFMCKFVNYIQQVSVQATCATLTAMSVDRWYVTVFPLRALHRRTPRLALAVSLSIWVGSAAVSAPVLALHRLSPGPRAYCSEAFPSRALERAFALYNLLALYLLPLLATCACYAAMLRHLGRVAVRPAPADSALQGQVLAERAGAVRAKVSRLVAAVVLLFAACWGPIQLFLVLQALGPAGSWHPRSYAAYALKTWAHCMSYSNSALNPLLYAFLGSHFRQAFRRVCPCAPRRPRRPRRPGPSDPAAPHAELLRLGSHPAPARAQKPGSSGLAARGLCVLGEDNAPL

Ki, < 10 nM:
B1
B2
B3
B4
B5
B6
B7
B8
